# Measured values published in PMC3087119 (Human Mutation, 2011).
# Molecular target: the molecule itself
# Experiment: static light scattering
protein,measurement,value
βA3-crystallin (natural protein) METQAEQQELETLPTTKMAQTNPTPGSLGPWKITIYDQENFQGKRMEFTSSCPNVSERSFDNVRSLKVESGAWIGYEHTSFCGQQFILERGEYPRWDAWSGSNAYHIERLMSFRPICSANHKESKMTIFEKENFIGRQWEISDDYPSLQAMGWFNNEVGSMKIQSGAWVCYQYPGYRGYQYILECDHHGGDYKHWREWGSHAQTSQIQSIRRIQQ,stoichiometry N,2
